From paper PMC10359280, “A maize epimerase modulates cell wall synthesis and glycosylation during stomatal morphogenesis” (Nature Communications, 2023) come the findings set out here.

Series [1] has as its target T1, BZU3 (Zea mays, UniProt C0HI30).
T1 construct: gene ZEAMMB73_Zm00001d029151; residues 1-189 NAD domain, 190-355 sugar domain; homo-dimer
T1 sequence (C0HI30 1-355): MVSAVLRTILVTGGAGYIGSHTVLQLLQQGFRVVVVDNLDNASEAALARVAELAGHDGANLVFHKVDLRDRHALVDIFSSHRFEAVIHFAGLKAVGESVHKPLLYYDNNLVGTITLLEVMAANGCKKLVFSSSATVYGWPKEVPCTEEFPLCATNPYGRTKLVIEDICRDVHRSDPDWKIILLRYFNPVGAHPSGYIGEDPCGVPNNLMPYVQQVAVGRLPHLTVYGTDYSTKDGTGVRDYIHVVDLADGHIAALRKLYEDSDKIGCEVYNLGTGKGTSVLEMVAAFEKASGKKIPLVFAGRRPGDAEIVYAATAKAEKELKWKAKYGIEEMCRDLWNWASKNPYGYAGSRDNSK
Nature of the series: X-ray crystal structure, […] Å, soaked with […] ligand. As to conditions: ternary complex with NAD+, crystals at pH 5.0. It counts as binding.

Series [2] has as its target T1, BZU3. Nature of the series: X-ray crystal structure. As to conditions: no ligand soak for 7XPP; with UDP-Glc 7XPO; with UDP-GlcNAc 7XPQ. The class given is binding.
For series [3], the target named is BZU3 (maize UDP-glucose 4-epimerase), recombinant 6×His-BZU3 (maize). Nature of the series: crystal structure; BZU3 (~5.0 mg/ml) crystallised by sitting-drop vapor diffusion, 100 mM sodium malonate pH 5.0, 12~16% PEG3350; apo form and crystals soaked with 5 mM UDP-Glc or UDP-GlcNAc.
Substrate in series [4]: O=c1ccn([C@@H]2O[C@H](COP(=O)(O)OP(=O)(O)O[C@H]3O[C@H](CO)[C@H](O)[C@H](O)[C@H]3O)[C@@H](O)[C@H]2O)c(=O)[nH]1
Nature of the series: HPLC of UDP-Glc/UDP-Gal, Michaelis-Menten. As to conditions: 10 mM Tris-HCl pH 8.0, 30 °C, 25 nM enzyme, 1 min. The class given is biochemical, Zea mays.

Substrate in series [5]: O=c1ccn([C@@H]2O[C@H](CO[P@@](=O)(O)O[P@@](=O)(O)O[C@H]3O[C@H](CO)[C@@H](O)[C@H](O)[C@H]3O)[C@@H](O)[C@H]2O)c(=O)[nH]1
Nature of the series: HPLC of UDP-Glc/UDP-Gal, Michaelis-Menten. The note with it: 10 mM Tris-HCl pH 8.0, 30 °C, 25 nM enzyme, 1 min. The class given is biochemical, Zea mays.

Substrate in series [6]: CC(=O)N[C@H]1[C@@H](OP(=O)(O)OP(=O)(O)OC[C@H]2O[C@@H](n3ccc(=O)[nH]c3=O)[C@H](O)[C@@H]2O)O[C@H](CO)[C@@H](O)[C@@H]1O
Nature of the series: HPLC of UDP-GlcNAc/UDP-GalNAc, Michaelis-Menten. The class given is biochemical, Zea mays. The note with it: similar protocol (10 mM Tris-HCl pH 8.0, 30 °C).

Substrate in series [7]: CC(=O)N[C@H]1[C@@H](OP(=O)(O)OP(=O)(O)OC[C@H]2O[C@@H](n3ccc(=O)[nH]c3=O)[C@H](O)[C@@H]2O)O[C@H](CO)[C@H](O)[C@@H]1O
Nature of the series: HPLC of UDP-GlcNAc/UDP-GalNAc, Michaelis-Menten. It counts as biochemical, Zea mays. As to conditions: similar protocol (10 mM Tris-HCl pH 8.0, 30 °C).

For `CC(=O)N[C@H]1[C@@H](OP(=O)(O)OP(=O)(O)OC[C@H]2O[C@@H](n3ccc(=O)[nH]c3=O)[C@H](O)[C@@H]2O)O[C@H](CO)[C@@H](O)[C@@H]1O` [UDP-GlcNAc], the “X-ray crystal structure, 2.15 Å, soaked with 5 mM ligand” value on BZU3 [1] is listed as “The structure of BZU3 in complex with NAD^+/UDP-GlcNAc was similar to that of BZU3/NAD^+/UDP-Glc”.

Consider `NC(=O)c1ccc[n+]([C@@H]2O[C@H](COP(=O)(O)OP(=O)(O)OC[C@H]3O[C@@H](n4cnc5c(N)ncnc54)[C@H](O)[C@@H]3O)[C@@H](O)[C@H]2O)c1` [NAD^+], for which the X-ray crystal structure result at BZU3 [2] was “both Y157 and K161 directly interact with the ribose moiety of NAD^+”.

For “BZU3 (maize UDP-glucose 4-epimerase), recombinant 6×His-BZU3 (enzyme)”, in series [3], the stoichiometry N came to 2.

B1: BZU3 (Zea mays) (protein)
chain: MVSAVLRTILVTGGAGYIGSHTVLQLLQQGFRVVVVDNLDNASEAALARVAELAGHDGANLVFHKVDLRDRHALVDIFSSHRFEAVIHFAGLKAVGESVHKPLLYYDNNLVGTITLLEVMAANGCKKLVFSSSATVYGWPKEVPCTEEFPLCATNPYGRTKLVIEDICRDVHRSDPDWKIILLRYFNPVGAHPSGYIGEDPCGVPNNLMPYVQQVAVGRLPHLTVYGTDYSTKDGTGVRDYIHVVDLADGHIAALRKLYEDSDKIGCEVYNLGTGKGTSVLEMVAAFEKASGKKIPLVFAGRRPGDAEIVYAATAKAEKELKWKAKYGIEEMCRDLWNWASKNPYGYAGSRDNSK
notes: residues 1-189 NAD domain, 190-355 sugar domain; homo-dimer
B1: the Michaelis-Menten constant (Km) was 1450 µM in series [4], 2670 µM in series [5], 400 µM in series [6] and 500 µM in series [7].

One may read the stoichiometry N as a count of units in the complex or per binding partner. A word on the Km: it is the substrate concentration at which the rate is half of its maximum.
